The source of these data is US10064926B2, “Peptides and combination of peptides for use in immunotherapy against hepatocellular carcinoma (HCC) and other cancers” (Immatics biotechnologies GmbH, priority 2014, dated 2018).

The target in one test is HLA-A*02 (Homo sapiens, UniProt P04439, D140Y/D185E/D98H/E176V/E277Q/G131W/G231S/I119V/I121R/I166T/I218V/N151K/N90K/P208A/P217A/Q86G/Q94H/R138H/R169H). Put plainly: UV-ligand exchange / peptide binding to MHC class I (beta2m ELISA). Particulars: Table 10A; peptide exchange yield, UV-ligand exchange, β2m ELISA. Summed up:
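Peptide-MHC complexes generated by UV-mediated exchange of a photocleavable ligand for the test peptide. Exchange yield measured by streptavidin-capture ELISA detecting β2m of stabilized complexes (HRP anti-β2m, TMB, 450 nm). Samples diluted 100-fold, quantified against refolded HLA-A*0201 monomer standards (15-500 ng/ml).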
For orientation: An ELISA detects its analyte on a solid surface through an enzyme-linked reagent.
As for “221 (ALCEENMRGV; listed as Homo sapiens) [compound 221]”, the “Peptide exchange (MHC class I binding score)” value (“Peptide exchange” below) was “+++ (50%-75% = +++)”. Still for that read-out and setting: the same measure for “13 (GLIDTETAMKAV; listed as Homo sapiens) [compound 13]”: “++++ (>=75% = ++++)”.

The test is the same for the next values; noted with them: Table 10B; peptide exchange yield; HLA-A*02 peptides.
“123 (YLWDLDHGFAGV; listed as Homo sapiens) [compound 123]”: the “Peptide exchange” value was ““+++” (≥50 = +++)”. With “44 (ALQDAIRQL; listed as Homo sapiens) [compound 44]”, the “Peptide exchange” value is on record as ““++++” (≥75% = ++++)”. “277 (ALLEENSTPQL; listed as Homo sapiens) [compound 277]”: the “Peptide exchange” value is ““+++” (≥50 = +++)”. Same read-out and setting: the same measure for “81 (NLASFIEQVAV; listed as Homo sapiens) [compound 81]”: ““+++” (≥50 = +++)”.

With “130 (ALDAGAVYTL; listed as Homo sapiens) [compound 130]”, the “Peptide exchange” value is reported as ““++++” (≥75% = ++++)”.

In the case of “98 (SLLSPEHLQYL; listed as Homo sapiens) [compound 98]”, the “Peptide exchange” value is listed as ““+++” (≥50 = +++)”.

Regarding “286 (KVLDKVFRA; listed as Homo sapiens) [compound 286]”, the “Peptide exchange” value was ““++++” (≥75% = ++++)”. Still for that read-out and setting: the same measure for “87 (RLFEENDVNL; listed as Homo sapiens) [compound 87]”: ““+++” (≥50 = +++)”; for “178 (YIFTTPKSV; listed as Homo sapiens) [compound 178]”: ““+++” (≥50 = +++)”. Turning to “86 (RLAAFYSQV; listed as Homo sapiens) [compound 86]”, the “Peptide exchange” value was ““+++” (≥50 = +++)”. As for “125 (ALYGRLEVV; listed as Homo sapiens) [compound 125]”, the “Peptide exchange” value was ““++++” (≥75% = ++++)”. For “251 (RLFADILNDV; listed as Homo sapiens) [compound 251]”, the “Peptide exchange” value is given as ““++++” (≥75% = ++++)”. In the case of “126 (TLLDSPIKV; listed as Homo sapiens) [compound 126]”, the “Peptide exchange” value is ““+++” (≥50 = +++)”. The same measure, in the same setting: the same measure for “18 (ALYGKTEVV; listed as Homo sapiens) [compound 18]”: ““+++” (≥50 = +++)”. Regarding “237 (ALRGEIETV; listed as Homo sapiens) [compound 237]”, the “Peptide exchange” value is recorded as ““+++” (≥50 = +++)”. Turning to “248 (KLNDLIQRL; listed as Homo sapiens) [compound 248]”, the “Peptide exchange” value is recorded as ““+++” (≥50 = +++)”. “136 (ALLNQHYQV; listed as Homo sapiens) [compound 136]”: the “Peptide exchange” value is recorded as ““+++” (≥50 = +++)”. As to “139 (ALSSKPAEV; listed as Homo sapiens) [compound 139]”, the “Peptide exchange” value is ““+++” (≥50 = +++)”. As for “140 (ALTSISAGV; listed as Homo sapiens) [compound 140]”, the “Peptide exchange” value is recorded as ““++++” (≥75% = ++++)”.

As to “264 (VMQDPEFLQSV; listed as Homo sapiens) [compound 264]”, the “Peptide exchange” value is reported as ““++++” (≥75% = ++++)”. Same read-out and setting: the value for “146 (FLWTEQAHTV; listed as Homo sapiens) [compound 146]” was ““++” (≥20% = ++)”; that for “17 (RVASPTSGV; listed as Homo sapiens) [compound 17]” was ““+++” (≥50 = +++)”; that for “231 (RLFNDPVAMV; listed as Homo sapiens) [compound 231]” was ““++++” (≥75% = ++++)”. For the substance “167 (SLAESSFDV; listed as Homo sapiens) [compound 167]”, the “Peptide exchange” value is ““+++” (≥50 = +++)”. The same measure, in the same setting: the value for “56 (GVLPGLVGV; listed as Homo sapiens) [compound 56]” was ““+++” (≥50 = +++)”; that for “270 (SVLDQKILL; listed as Homo sapiens) [compound 270]” was ““+++” (≥50 = +++)”. The same measure, in the same setting: the value for “112 (VLGEVKVGV; listed as Homo sapiens) [compound 112]” was ““++++” (≥75% = ++++)”; that for “40 (ALLAEGITWV; listed as Homo sapiens) [compound 40]” was ““+++” (≥50 = +++)”.

Consider “180 (YLGPHIASVTL; listed as Homo sapiens) [compound 180]”, for which the “Peptide exchange” value is on record as ““+++” (≥50 = +++)”. For “51 (GLAEELVRA; listed as Homo sapiens) [compound 51]”, the “Peptide exchange” value is ““++” (≥20% = ++)”.

Take “283 (ILSGIGVSQV; listed as Homo sapiens) [compound 283]”: the “Peptide exchange” value is ““+++” (≥50 = +++)”.

For “92 (RLPPDTLLQQV; listed as Homo sapiens) [compound 92]”, the “Peptide exchange” value is ““+++” (≥50 = +++)”. On to “104 (SVWFGPKEV; listed as Homo sapiens) [compound 104]”, for which the “Peptide exchange” value was ““+++” (≥50 = +++)”.

Consider “281 (GLLAGDRLVEV; listed as Homo sapiens) [compound 281]”, for which the “Peptide exchange” value is ““+++” (≥50 = +++)”.

As for “299 (ALLRVTPFI; listed as Homo sapiens) [compound 299]”, the “Peptide exchange” value is on record as ““+++” (≥50 = +++)”. For “158 (RIISGLVKV; listed as Homo sapiens) [compound 158]”, the “Peptide exchange” value was ““++” (≥20% = ++)”.

Consider “221 (ALCEENMRGV; listed as Homo sapiens) [compound 221]”, for which the “Peptide exchange” value was ““+++” (≥50 = +++)”. “238 (AMPPPPPQGV; listed as Homo sapiens) [compound 238]”: the “Peptide exchange” value is given as ““++” (≥20% = ++)”.

“160 (RLLAKIICL; listed as Homo sapiens) [compound 160]”: the “Peptide exchange” value was ““++” (≥20% = ++)”.

In the case of “297 (TLFYSLREV; listed as Homo sapiens) [compound 297]”, the “Peptide exchange” value is given as ““+++” (≥50 = +++)”.

Regarding “295 (SLFSSPPEI; listed as Homo sapiens) [compound 295]”, the “Peptide exchange” value is recorded as ““+++” (≥50 = +++)”.

For “162 (RLMSALTQV; listed as Homo sapiens) [compound 162]”, the “Peptide exchange” value is ““++” (≥20% = ++)”. The same measure, in the same setting: the same measure for “285 (KLLDLSDSTSV; listed as Homo sapiens) [compound 285]”: ““+++” (≥50 = +++)”; for “267 (ALNENINQV; listed as Homo sapiens) [compound 267]”: ““+++” (≥50 = +++)”. On the same count and under the same terms, the same measure for “171 (SLIPAVLTV; listed as Homo sapiens) [compound 171]”: ““+++” (≥50 = +++)”; for “152 (KLDNNLDSV; listed as Homo sapiens) [compound 152]”: ““+++” (≥50 = +++)”. Still for that read-out and setting: the same measure for “280 (ATLNIIHSV; listed as Homo sapiens) [compound 280]”: ““+++” (≥50 = +++)”; for “244 (KIAELLENV; listed as Homo sapiens) [compound 244]”: ““++++” (≥75% = ++++)”. On to “253 (RVPPPPQSV; listed as Homo sapiens) [compound 253]”, for which the “Peptide exchange” value is given as ““++” (≥20% = ++)”. Regarding “166 (SILDIVTKV; listed as Homo sapiens) [compound 166]”, the “Peptide exchange” value is listed as ““+++” (≥50 = +++)”. On the same count and under the same terms, the same measure for “30 (YLGEGPRMV; listed as Homo sapiens) [compound 30]”: ““+++” (≥50 = +++)”; for “41 (ALLELDEPLVL; listed as Homo sapiens) [compound 41]”: ““++++” (≥75% = ++++)”.

As for “150 (GLSNLGIKSI; listed as Homo sapiens) [compound 150]”, the “Peptide exchange” value is ““++++” (≥75% = ++++)”. Same read-out and setting: the value for “222 (LTDITKGV; listed as Homo sapiens) [compound 222]” was ““++” (≥20% = ++)”.

As to “258 (SLMGPVVHEV; listed as Homo sapiens) [compound 258]”, the “Peptide exchange” value is on record as ““+++” (≥50 = +++)”.

Regarding “26 (SLLHTIYEV; listed as Homo sapiens) [compound 26]”, the “Peptide exchange” value is ““+++” (≥50 = +++)”. Take “67 (KLKETIQKL; listed as Homo sapiens) [compound 67]”: the “Peptide exchange” value is ““+++” (≥50 = +++)”.

On to “13 (GLIDTETAMKAV; listed as Homo sapiens) [compound 13]”, for which the “Peptide exchange” value is ““++++” (≥75% = ++++)”. On to “163 (RLTESVLYL; listed as Homo sapiens) [compound 163]”, for which the “Peptide exchange” value is given as ““+++” (≥50 = +++)”. As to “96 (SLLEEPNVIRV; listed as Homo sapiens) [compound 96]”, the “Peptide exchange” value is ““++++” (≥75% = ++++)”.

In the case of “108 (TLLKKISEA; listed as Homo sapiens) [compound 108]”, the “Peptide exchange” value is recorded as ““+++” (≥50 = +++)”. Still for that read-out and setting: the value for “278 (ALTSVVVTL; listed as Homo sapiens) [compound 278]” was ““++++” (≥75% = ++++)”; that for “117 (YAFPKSITV; listed as Homo sapiens) [compound 117]” was ““+++” (≥50 = +++)”; that for “132 (ALHEEVVGV; listed as Homo sapiens) [compound 132]” was ““+++” (≥50 = +++)”.
